Experimental data from PMC3206906, “P50, the Small Subunit of DNA Polymerase Delta, Is Required for Mediation of the Interaction of Polymerase Delta Subassemblies with PCNA” (PLoS ONE, 2011).

Molecular target: T1, digoxigenin (DIG)-labeled recombinant human PCNA (human, UniProt P12004 1-261, digoxigenin label (DIG Protein Labeling Kit); labeled residues not stated)
T1 construct: proliferating cell nuclear antigen (PCNA), human, recombinant wild type; Same protein as m1, chemically labeled with digoxigenin and used as the probe in the overlay; also called PCNA-DIG; DIG-labeled PCNA
Test: far-Western, overlay or dot blot; Increasing amounts of non-tagged p50 or purified pol δ4 run on 12% SDS-PAGE and transferred to nitrocellulose; probed with DIG-labeled PCNA in PBS for one hour (1:10,000 dilution of 0.15 mg/ml stock); detected with Anti-DIG-HRP and ECL; films for p50 slightly overexposed
Conditions: both partners purified

T1 sequence (P12004 whole entry): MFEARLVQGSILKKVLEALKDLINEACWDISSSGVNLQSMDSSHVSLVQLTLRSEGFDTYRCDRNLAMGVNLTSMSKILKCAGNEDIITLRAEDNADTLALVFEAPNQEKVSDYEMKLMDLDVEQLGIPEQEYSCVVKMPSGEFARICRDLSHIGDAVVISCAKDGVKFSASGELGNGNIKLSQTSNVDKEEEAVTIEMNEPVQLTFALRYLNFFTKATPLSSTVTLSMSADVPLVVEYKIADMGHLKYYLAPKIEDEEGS

binding result: binds
B1: p12 subunit of recombinant human DNA polymerase δ four-subunit complex (natural protein, UniProt Q9HCU8 1-107, looked up)
chain: MGRKRLITDSYPVVKRREGPAGHSKGELAPELGEEPQPRDEEEAELELLRQFDLAWQYGPCTGITRLQRWCRAKQMGLEPPPEVWQVLKTHPGDPRFQCSLWHLYPL
notes: also called pol δ4 subunit p12; source: Bombyx mori (silkworm) bioreactor, purified as the pol δ four-subunit complex, resolved by SDS-PAGE
